Assay [1] has as its system C57B1/6 mice. In words: Intestinal ischemia-reperfusion injury model in immune competent mice. In kind it is in vivo. Particulars: injected right before the reperfusion phase, FIG. 9. The procedure: To address this issue, the inventors created compounds that could block the effects of the monoclonal antibodies. This concept was first tested with the antibodies recognizing phospholipids, and liposomes were created composed of cholesterol and the phospholipids phosphatidylcholine and phosphoglycerol.
Wild type C57BL/6 are utilized for these studies. The ischemia-reperfusion model is performed as outlined briefly. Anesthesia is induced with ketamine (16 mg/kg) and xylazine (8 mg/kg) administered by intramuscular injection. All procedures are performed with the animals breathing spontaneously and body temperature maintained at 37° C. using a water-circulating heating pad. To induce ischemia-reperfusion injury, a midline laparotomy is performed prior to a 30 minute equilibration period. […] After this ischemic phase, the clamp is removed under direct visualization and the intestine allowed to perfuse for 2 hours. […] The laparotomy incisions are then sutured and the animals monitored during the reperfusion period. […]
For histology and immunohistochemistry, immediately after euthansia segments of small intestine specimens are fixed in 10% buffered formalin. […] In addition, the villus height of at least 10 villi from the same section is measured using an ocular micrometer. […]

Assay [2] relates to C57B1/6 mice. In words: MCAO ischemic stroke and reperfusion in C57B1/6 mice, treatment. In kind it is in vivo. Particulars: 100 μg i.v. at 30 min post reperfusion. The procedure:
Eight week old male C57B1/6 and C57B1/6 C3 deficient mice (Jackson labs, Bar Harbor, Me.) were used in experiments. Mice were anesthetized with chloral hydrate (350 mg/kg) and xylazine (4 mg/kg) i.p., and the left common carotid artery of each mouse was exposed through a mid-line incision in the neck. […] The distal end of the ECA was ligated with 6-0 silk and transected, and 6-0 silk was tied loosely around the ECA stump. The clip was then removed, and the blunted tip of a 4-0 nylon suture was inserted into the ECA stump. The loop of the 6-0 silk was tightened around the stump, and the nylon suture advanced into and through the internal carotid artery until it rested in the anterior cerebral artery. After the nylon suture had been placed for 60 minutes, it was pulled back into the ECA, and the incision closed. […]
Infarct volume was measured by TTC staining and volume calculated using image analysis.
Animals were monitored for 24 hours post reperfusion and clinical assessed for neurological deficit. Behavioral/neurological deficit was scored as follows: 0, normal motor function; 1, flexion of torso and contralateral forelimb when animal is lifted by the tail; 2, circling to the contralateral side when held by tail on flat surface, but normal posture at rest; 3, leaning to the contralateral side at rest; 4, no spontaneous motor activity. […]

The results in this text go back to patent US20130171236A1, “Prevention and Treatment of Ischemia-Reperfusion Injury and Related Conditions” (MEDICAL UNIVERSITY OF SOUTH CAROLINA, priority 2006, published 2013).

B1: annexin IV: recombinant annexin IV, a phospholipid binding protein, prepared as in Example 2 (protein, listed as Homo sapiens)
chain: MATKGGTVKAASGFNAMEDAQTLRKAMKGLGTDEDAIISVLAYRNTAQRQEIRTAYKSTIGRDLIDDLKSELSGNFEQVIVGMMTPTVLYDVQELRRAMKGAGTDEGCLIEILASRTPEEIRRISQTYQQQYGRSLEDDIRSDTSFMFQRVLVSLSAGGRDEGNYLDDALVRQDAQDLYEAGEKKWGTDEVKFLTVLCSRNRNHLLHVFDEYKRISQKDIEQSIKSETSGSFEDALLAIVKCMRNKSAYFAEKLYKSMKGLGTDDNTLIRVMVSRAEIDMLDIRAHFKRLYGKSLYSFIKGDTSGDYRKVLLVLCGGDD
As for B1, the intestinal ischemia-reperfusion injury entry in assay [1] is “nearly completely protected mice from ischemia-reperfusion injury”; in assay [1] (listed as recombinant annexin IV), “reduces the level of intestinal ischemia reperfusion injury”. For the same molecule, the neurological deficit entry in assay [2] (24 hours, FIG. 8) was “significant reduction in neurological deficit”. Also, the “cerebral infarct volume (TTC)” value in assay [2] (FIG. 7) was “significantly protects against cerebral infarct”.
